Source: US20210269480A1 (published 2021)
*1 amine or outer side, *2 acyl side, *3 side chain or, on linkers, in order; H or OH if unused. Bridges are numbered along the chain shown (N, C = ends). Where no end group is shown, it is not given here. [ ]: non-standard residue; d: D form. TATA = O=C(CC[*:1])N1CN(C(=O)CC[*:2])CN(C(=O)CC[*:3])C1; 1Nal = N[C@@H](Cc1cccc2ccccc12)C(=O)O; 2Nal = N[C@@H](Cc1ccc2ccccc2c1)C(=O)O; Hyp = O=C(O)[C@@H]1C[C@@H](O)CN1; hArg = N=C(N)NCCCC[C@H](N)C(=O)O; Agb = N=C(N)NCC[C@H](N)C(=O)O; Pip = O=C(O)[C@@H]1CCCCN1; Nle = CCCC[C@H](N)C(=O)O; Aze = O=C(O)[C@@H]1CCN1

T1: Human Nectin-4 (residues Gly32-Ser349) with C-terminal FLAG tag, biotinylated (human, UniProt Q96NY8 32-349, randomly biotinylated with EZ-Link Sulfo-NHS-LC-LC-Biotin)
T1 construct: range 32-349; Captured through biotin on a streptavidin CM5 chip in the SPR assay; also called PVRL4; not shown: C-terminal FLAG tag
T1 sequence (looked up): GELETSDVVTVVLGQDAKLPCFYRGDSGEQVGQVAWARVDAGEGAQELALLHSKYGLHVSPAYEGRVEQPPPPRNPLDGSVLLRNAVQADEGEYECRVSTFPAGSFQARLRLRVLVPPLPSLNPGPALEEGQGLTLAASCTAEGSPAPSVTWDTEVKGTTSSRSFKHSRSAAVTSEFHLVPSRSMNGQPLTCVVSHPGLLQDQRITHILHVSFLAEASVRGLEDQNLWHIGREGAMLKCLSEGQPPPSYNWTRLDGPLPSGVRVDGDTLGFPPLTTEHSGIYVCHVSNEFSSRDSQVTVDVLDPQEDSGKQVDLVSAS

T2: human Nectin-4 (human, UniProt Q96NY8 32-349)
T2 construct: a Gly32-Ser349 FLAG construct is described only under the SPR assay; also called PVRL4
T2 sequence (looked up): T1 sequence (looked up)

B1: BCY428 (peptide)
peptide: ACPFGCMKNWSWPIWCA
modifications: linker 2-6-16 via TATA
notes: Bicyclic peptide cyclised with TATA; also called 80-09-02-N002

target: T1, Human Nectin-4 (residues Gly32-Ser349) …; test: SPR (Biacore), biotinylated human Nectin-4 on streptavidin chip
Experimental: Biacore experiments were performed to determine kₐ (M⁻¹s⁻¹), kd (s⁻¹), KD (nM) values of monomeric peptides binding to human Necin-4 protein (obtained from Charles River).
For analysis of peptide binding, a Biacore 3000 instrument was used utilising a CM5 chip (GE Healthcare). Streptavidin was immobilized on the chip using standard amine-coupling chemistry at 25° C. with HBS-N (10 mM HEPES, 0.15 M NaCl, pH 7.4) as the running buffer. Briefly, the carboxymethyl dextran surface was activated with a 7 minute injection of a 1:1 ratio of 0.4 M 1-ethyl-3-(3-dimethylaminopropyl) carbodiimide hydrochloride (EDC)/0.1 M N-hydroxy succinimide (NHS) at a flow rate of 10 μl/min. For capture of streptavidin, the protein was diluted to 0.2 mg/ml in 10 mM sodium acetate (pH 4.5) and captured by injecting 120 μl of streptavidin onto the activated chip surface. Residual activated groups were blocked with a 7 minute injection of 1 M ethanolamine (pH 8.5) and biotinylated Nectin-4 captured to a level of 1,200-1,800 RU. Buffer was changed to PBS/0.05% Tween 20 and a dilution series of the peptides was prepared in this buffer with a final DMSO concentration of 0.5%. The top peptide concentration was 100 nM with 6 further 2-fold dilutions. The SPR analysis was run at 25° C. at a flow rate of 50 μl/min with 60 seconds association and dissociation between 400 and 1,200 seconds depending upon the individual peptide. Data were corrected for DMSO excluded volume effects. All data were double-referenced for blank injections and reference surface using standard processing procedures and data processing and kinetic fitting were performed using Scrubber software, version 2.0c (BioLogic Software). Data were fitted using simple 1:1 binding model allowing for mass transport effects where appropriate.

In the case of B1, the Kd is reported as 334 nM.

target: T2, human Nectin-4; test: FP competition, tracer SEQ ID NO 217
Experimental: Peptides were diluted to an appropriate concentration in assay buffer as described in the direct binding assay with a maximum of 5% DMSO, then serially diluted 1 in 2. […] Measurements were conducted as for the direct binding assay, however the gain was determined prior to the first measurement. Data analysis was in Systat Sigmaplot version 12.0 where the mP values were fit to a user defined cubic equation to generate a Ki value: […]

First: DPGCPFGCMPGWSWPIWCA (linker 4-8-18 via TATA) [BCY3392]
Second: Ac-CP[1Nal][dR]CMPDWSTP[Hyp]WC (linker 1-5-15 via TATA) [BCY8193]
The Ki of the first is 12-fold higher: 36.3 nM for the first, 3 nM for the second. The second binds more tightly here.

Ac-CP[1Nal][dR]CM[hArg]DWSTP[Hyp]WC (linker 1-5-15 via TATA) [BCY8184] and Ac-CP[1Nal][dR]CM[Hyp]DWSTP[Hyp]WC (linker 1-5-15 via TATA) [BCY8194] are within 1.5-fold of each other in Ki: 3.2 nM for the first, 3.5 nM for the second.

Going from Q[dK]WCAPLSDYWCNRICA (linker 4-12-16 via TATA) [BCY7426] to ACPFGCMXNWSWPIWCTNK (core CPFGCM[K(Ac)]NWSWPIWC; TATA on 3 Cys) [BCY7266], the Ki falls from 69 nM to 41 nM (1.7-fold).

First: Ac-CPFGCMKNWS[2Nal]PIWC (linker 1-5-15 via TATA) [BCY7592]
Second: HDSCPFGCM[dK]SWSWPIWCA (linker 4-8-18 via TATA) [BCY7276]
The Ki of the first is 8.7-fold lower: 37.4 nM for the first, 326 nM for the second.

QK(Ac)WCAPLSDYWCNRICA (linker 4-12-16 via TATA) [BCY7280] and ACPFGCQEDWSWPIWCLSE (linker 2-6-16 via TATA) [BCY3398] are within 1.5-fold of each other in Ki: 219 nM for the first, 164 nM for the second.

Going from HDSCPFGC[Nle]KSWSWPIWCA (linker 4-8-18 via TATA) [BCY7274] to Ac-CPFGCMKNWS[1Nal]PIWC (linker 1-5-15 via TATA) [BCY7591], the Ki rises from 90.5 nM to 180 nM (2-fold).

Compared with ACPFGCM[hArg]NWSWPIWCTNK (linker 2-6-16 via TATA) [BCY7265], ACPFGCMKNWSWPIWCTN[hArg] (linker 2-6-16 via TATA, also called 80-09-02-T01-N003) [BCY7281] is 1.7-fold lower in Ki: 38.3 nM for the first, 22.9 nM for the second.

AC[dA]FGCMKNWSWPIWCTNK (linker 2-6-16 via TATA) [BCY7370] and HDSCPFGCMKSWSWPIWCA (linker 4-8-18 via TATA) [BCY3393] are within 1.5-fold of each other in Ki: 144 nM for the first, 173 nM for the second.

XACPFGCMKNWSWPIWCA (N-terminal X = 44BPA (4,4-biphenylalanine); TATA on 3 Cys, also called 80-09-02-N012) [BCY7521] and Ac-CPFGCMKNWSW[Pip]IWC (linker 1-5-15 via TATA) [BCY7595] are within 1.5-fold of each other in Ki: 224 nM for the first, 219 nM for the second.

First: Ac-CP[2Nal][dR]CM[hArg]DWSTP[Hyp]WC (linker 1-5-15 via TATA) [BCY8186]
Second: ACPFGCQEHWSWPIWCTTA (linker 2-6-16 via TATA) [BCY3396]
The Ki of the first is 17-fold lower: 6 nM for the first, 102 nM for the second. The first binds more tightly here.

First: ACPFGCXKNWSWPIWCTNK (core CPFGC(Nle)KNWSWPIWC (printed (NIe)); TATA on 3 Cys, also called 80-09-02-T01-N041) [BCY7372]
Second: XACPFGCMKNWSWPIWCA (N-terminal X = 2-Nal; TATA on 3 Cys, also called 80-09-02-N010) [BCY7421]
The Ki of the first is 2.5-fold higher: 72.6 nM for the first, 28.5 nM for the second.

Compared with ACPFGCMKNWSAPIWCTNK (linker 2-6-16 via TATA, also called 80-09-02-T01-N012) [BCY7342], ACPFGCMKNWSWPAWCTNK (linker 2-6-16 via TATA, also called 80-09-02-T01-N014) [BCY7344] is 7.8-fold lower in Ki: 310 nM for the first, 39.8 nM for the second. The second binds more tightly here.

First: ACPFGCMKNWSWPIWCTAK (linker 2-6-16 via TATA, also called 80-09-02-T01-N017) [BCY7347]
Second: ACPFGCMKNWSWPIWCANK (linker 2-6-16 via TATA, also called 80-09-02-T01-N016) [BCY7346]
The Ki of the first is 1.8-fold lower: 36.1 nM for the first, 64.9 nM for the second. The first binds more tightly here.

Compared with ACPFGCMKAWSWPIWCTNK (linker 2-6-16 via TATA, also called 80-09-02-T01-N027) [BCY7357], ACPFGCMKNWSWPIWCTNA (linker 2-6-16 via TATA, also called 80-09-02-T01-N018) [BCY7348] is 2.2-fold lower in Ki: 45.2 nM for the first, 20.6 nM for the second.

Compared with ACPFGCMKNWSWPIWC[dA]NK (linker 2-6-16 via TATA) [BCY7367], ACPFGCMANWSWPIWCTNK (linker 2-6-16 via TATA, also called 80-09-02-T01-N026) [BCY7356] is 1.7-fold higher in Ki: 26.3 nM for the first, 43.4 nM for the second. The first binds more tightly here.

Going from ACAFGCMKNWSWPIWCTNK (linker 2-6-16 via TATA, also called 80-09-02-T01-N022) [BCY7352] to ACPFACMKNWSWPIWCTNK (linker 2-6-16 via TATA, also called 80-09-02-T01-N020) [BCY7354], the Ki rises from 132 nM to 884 nM (6.7-fold).

Going from ACWPLDDYWCPRICPQA (linker 2-10-14 via TATA) [BCY3401] to HDSCPFGCMK(Ac)SWSWPIWCA (linker 4-8-18 via TATA) [BCY7273], the Ki falls from 154 nM to 84 nM (1.8-fold).

Compared with ACPFGCMKGWSWPIWCLKD (linker 2-6-16 via TATA) [BCY3395], ACPFGCIKSWSWPIWCQME (linker 2-6-16 via TATA) [BCY3397] is 1.9-fold higher in Ki: 17.4 nM for the first, 33.2 nM for the second.

First: ACPFGCMKTWSWPIWCTDK (linker 2-6-16 via TATA) [BCY3394]
Second: ACPFGCMSDWSWPIWCSTD (linker 2-6-16 via TATA) [BCY3399]
The Ki of the first is 4-fold lower: 102 nM for the first, 410 nM for the second. The first binds more tightly here.

First: Ac-CVTTSYDCWVTLGHCSRF (linker 1-8-15 via TATA) [BCY7393]
Second: ACPF[dA]CMKNWSWPIWCTNK (linker 2-6-16 via TATA) [BCY7350]
The Ki of the first is 23-fold higher: 232 nM for the first, 10 nM for the second. The second binds more tightly here.

First: HDSCPFGCM[hArg]SWSWPIWCA (linker 4-8-18 via TATA) [BCY7275]
Second: Ac-CPFGCMKNWSWPIWCTNK (linker 1-5-15 via TATA, also called 80-09-02-T01-N011) [BCY7391]
The Ki of the first is 3.3-fold higher: 43.3 nM for the first, 13.3 nM for the second.

Going from ACPFGCMKNWSWP[dA]WCTNK (linker 2-6-16 via TATA) [BCY7365] to [dH]DSCPFGCMKSWSWPIWCA (linker 4-8-18 via TATA) [BCY7272], the Ki falls from 282 nM to 41 nM (6.9-fold).

Q[hArg]WCAPLSDYWCNRICA (linker 4-12-16 via TATA) [BCY7278] and ACPFGCMK[dA]WSWPIWCTNK (linker 2-6-16 via TATA) [BCY7360] are within 1.5-fold of each other in Ki: 69 nM for the first, 68.2 nM for the second.

First: Ac-CPFGCMKNWSW[Aze]IWC (linker 1-5-15 via TATA) [BCY7594]
Second: QKWCAPLSDYWCN[hArg]ICA (linker 4-12-16 via TATA) [BCY7279]
The Ki of the first is 1.6-fold higher: 73 nM for the first, 44.4 nM for the second.

First: Ac-CP[1Nal][dR]CM[Agb]DWSTP[Hyp]WC (linker 1-5-15 via TATA) [BCY8192]
Second: ACPFGCM[dA]NWSWPIWCTNK (linker 2-6-16 via TATA) [BCY7359]
The Ki of the first is 32-fold lower: 5 nM for the first, 160 nM for the second. The first binds more tightly here.

For XACPFGCMKNWSWPIWCA (N-terminal X = 1-Nal; TATA on 3 Cys, also called 80-09-02-N009) [BCY7420], the Ki was 63.6 nM.
